The target of test [1] is T1, IGF-II (amino acids 1-67) (human, UniProt P01344 25-91).
T1 construct: mature; also called IGF-II (67aa); IGF2
The experiment in a line: competition SPR (Biacore T100) on immobilized huIR-A ECD, measurement #1. The protocol: Competition SPR (BIACORE®) was performed under conditions of partially mass-transport limited conditions according to previously described methodology (Nieba et al., 1996). Approximately 16,700 relative response units (RU) of huIR-A (-exon11) ectodomain was coupled by standard amine chemistry to a BIACORE® CM5 chip sensor. Uncoated flow-cell surface was used as a reference. […] Regeneration of the surface was achieved by injection of 30 ul NaCltrate/NaCl pH 4.5. […] These Req estimates were subsequently plotted against total concentrations of Fab used and the resulting inhibition curve was utilised to calculate dissociation constant (KD).
In general terms: SPR reads the build-up and loss of mass on a sensor chip optically.

Test [2] deals with T1, IGF-II (amino acids 1-67). Nature of the test: SPR (Biacore T100): IgG captured on Protein G', IGF-II injected. How it is done:
(§1) BIACORE® T100 and a CM5 chip coated with Protein G were utilised to set up following assay. Approximately 1000 RU of Protein G′ was immobilized on a CM5 chip using standard amine chemistry immobilization method. Entire assay consisted of three sequential injection of following four reagents 1) Candidate IgG was injected onto Protein G′ at 10 ug/ml at 5 ul/min for 180 sec.

Test [3] deals with T1, IGF-II (amino acids 1-67). Nature of the test: SPR (Biacore), germlined IgG.
The target of test [4] is T1, IGF-II (amino acids 1-67). The experiment in a line: SPR (Biacore T100): IgG captured on Protein G', ligand bound, then BP injected; competitor BP4. The protocol: as §1
In the next test the target is T2, IGF binding protein BP2 (UniProt P18065 36-325).
T2 construct: also called IGF BP2
T2 sequence (looked up): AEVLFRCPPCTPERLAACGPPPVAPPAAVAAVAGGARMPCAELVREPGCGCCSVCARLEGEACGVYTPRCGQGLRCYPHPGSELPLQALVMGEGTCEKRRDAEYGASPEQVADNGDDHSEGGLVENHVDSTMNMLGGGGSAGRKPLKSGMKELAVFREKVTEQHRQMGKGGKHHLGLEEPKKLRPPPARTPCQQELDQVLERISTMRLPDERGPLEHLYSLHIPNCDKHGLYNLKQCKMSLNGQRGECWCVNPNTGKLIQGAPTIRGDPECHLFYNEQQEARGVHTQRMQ
Nature of the test: SPR (Biacore T100): control with no IGF-II injected before the BP. The protocol: as §1

The next test addresses T3, IGF binding protein BP4 (UniProt P22692 22-258).
T3 construct: also called IGF BP4
T3 sequence (looked up): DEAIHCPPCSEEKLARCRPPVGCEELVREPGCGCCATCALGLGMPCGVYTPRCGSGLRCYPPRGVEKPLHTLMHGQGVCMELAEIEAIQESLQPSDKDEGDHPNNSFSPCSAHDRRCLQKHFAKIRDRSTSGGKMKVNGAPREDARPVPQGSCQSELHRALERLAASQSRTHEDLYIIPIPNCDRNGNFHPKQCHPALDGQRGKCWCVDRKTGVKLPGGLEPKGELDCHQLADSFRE
The test is described as above. How it is done:
as §1

The target of test [5] is T1, IGF-II (amino acids 1-67). The experiment in a line: SPR (Biacore), non-germlined IgG.
Test [6] deals with T1, IGF-II (amino acids 1-67). The experiment in a line: SPR (Biacore T100): IgG captured on Protein G', ligand bound, then BP injected; competitor BP2. How it is done: as §1
The target of test [7] is T1, IGF-II (amino acids 1-67). Nature of the test: cell-based or functional assay.

T1 sequence (P01344 25-91): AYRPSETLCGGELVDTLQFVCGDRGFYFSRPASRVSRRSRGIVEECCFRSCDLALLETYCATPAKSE

B1: M0073-C11 Fab (Fab, V domains shown)
VH: EVQLLESGGGLVQPGGSLRLSCAASGFTFSPYDMWWVRQAPGKGLEWVSSISSSGGITAYADSVKGRFTISRDNSKNTLYLQMNSLRAEDTAVYYCARAGYSSSWGYYYYGMDVWGQGTTVTVSS
VL: QSALTQPPSVSVSPGQTASITCSGDRLGDKYASWYQQKPGQSPVLVIYQDTKRPSGIPERFSGSNSGSTATLTISGTQAMDEADYYCQAWDSSTVVFGGGTKLTVL
notes: Anti-IGF-IIE Fab; the constant regions are printed only in part; also called 566A-M0073-C11; 566A-X0003-B02
In the case of B1, in test [1], the binding result was “no binding”.

B2: 566A-M0073-C11 IgG (antibody, V domains shown)
VH: B1 VH
VL: B1 VL
notes: also called 566A-X0003-B02
As for B2, in [2], the binding result is on record as “no binding (tested: 50 nM)”.

B3: X0008-A01 (germlined M0064-F02 IgG) (antibody, V domains shown)
VH: EVQLLESGGGLVQPGGSLRLSCAASGFTFSNYIMWWVRQAPGKGLEWVSVISSSGGMTRYADSVKGRFTISRDNSKNTLYLQMNSLRAEDTAVYYCARDNGDYVGEKGFDIWGQGTMVTVSS
VL: DIQMTQSPSSLSASVGDRVTITCRASQSISNYLNWYQQKPGKAPKLLIYTASTLQSGVPSRFSGSGSGTDFTLTISSLQPEDFATYYCQQSYNSPWTFGQGTKVEIK
As for B3, the Kd in test [3] was found to be 0.023 nM.

B4: M0064-E04 IgG (antibody, V domains shown)
VH: EVQLLESGGGLVQPGGSLRLSCAASGFTFSVYDMNWVRQAPGKGLEWVSSISSSGGGTLYADSVKGRFTISRDNSKNTLYLQMNSLRAEDTAVYYCARDSDTSSYYWYYDLWGRGTLVTVSS
VL: DIQMTQSPSSLSASVGDRVTITCQASHDISNYLNWYQQKPGKAPKLLIYAASRLQSGVPSRFSGGGSGTDFSLTISSLQAEDFATYYCQQSYSFPRTFGQGTNLEIK
notes: IgG form of the Fab; also called non-germlined M0064-E04
On to B4, for which the “competition score (0 = does not compete significantly, 5 = competes strongly)” value in test [4] and in test [6] was 5 score 0-5 in each case. The binding result with IGF binding protein BP2 and with IGF binding protein BP4 was “no binding (tested: 50 nM)” each time. This molecule also registered a dissociation constant (Kd) in test [5] of 0.52 nM. Besides, in [7], the “IC50, IGF-II stimulated BaF3 cell proliferation (Guava ViaCount)” value was approximately 19 nM.

B5: M0080-G03 Fab (Fab, V domains shown)
VH: EVQLLESGGGLVQPGGSLRLSCAASGFTFSFYQMMWVRQAPGKGLEWVSSISPSGGRTYYADSVKGRFTISRDNSKNTLYLQMNSLRAEDTAVYYCAKDIGLGYCSSTSCYTGTPLDYWGQGTLVTVSS
VL: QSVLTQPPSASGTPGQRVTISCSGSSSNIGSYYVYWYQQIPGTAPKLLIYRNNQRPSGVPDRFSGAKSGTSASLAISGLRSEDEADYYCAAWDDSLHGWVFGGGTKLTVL
notes: Anti-IGF-IIE Fab; the constant regions are printed only in part; also called 566A-M0080-G03; 566A-X0004-A02
On to B5, for which the binding result in [1] is recorded as “no binding”.

B6: M0080-G03 IgG (antibody, V domains shown)
VH: B5 VH
VL: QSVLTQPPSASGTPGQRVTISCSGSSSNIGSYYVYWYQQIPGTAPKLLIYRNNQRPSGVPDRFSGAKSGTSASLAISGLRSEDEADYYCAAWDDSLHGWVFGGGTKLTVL
notes: also called 566A-M0080-G03; 566A-X0004-A02
For B6, the binding result in [2] is reported as “no binding (tested: 50 nM)”.

In general, Kd refers to the free concentration of one partner at which half of the binding sites on the other are occupied at equilibrium, for simple one-to-one binding. Lower therefore signals tighter binding.

For the origin of these results see patent publication US20110262446A1 (published 2011).
